# According to PMC8615399, “Novel Structures of Type 1 Glyceraldehyde-3-phosphate Dehydrogenase from Escherichia coli Provide New Insights into the Mechanism of Generation of 1,3-Bisphosphoglyceric Acid” (Biomolecules, 2021):
# Molecular target: the molecule itself
# Experiment: crystal structure; hanging-drop vapor diffusion at 20 °C, protein 30 mg/mL; space group P4(1)2(1)2; complexes with NAD and phosphate, G3P or BPG; four subunits (O, P, Q, R) in each structure
row,Protein,stoichiometry N
1,"glyceraldehyde-3-phosphate dehydrogenase type 1 from Escherichia coli, wild type (enzyme, UniProt P0A9B2 1-331, looked up, glyceraldehyde-3-phosphate dehydrogenase type 1 (EcGAPDH1), Escherichia coli; EC 1.2.1.12; also called EcGAPDH1; WT; source: purified as previously described [24]) MTIKVGINGFGRIGRIVFRAAQKRSDIEIVAINDLLDADYMAYMLKYDSTHGRFDGTVEVKDGHLIVNGKKIRVTAERDPANLKWDEVGVDVVAEATGLFLTDETARKHITAGAKKVVMTGPSKDNTPMFVKGANFDKYAGQDIVSNASCTTNCLAPLAKVINDNFGIIEGLMTTVHATTATQKTVDGPSHKDWRGGRGASQNIIPSSTGAAKAVGKVLPELNGKLTGMAFRVPTPNVSVVDLTVRLEKAATYEQIKAAVKAAAEGEMKGVLGYTEDDVVSTDFNGEVCTSVFDAKAGIALNDNFVKLVSWYDNETGYSNKVLDLIAHISK",4
2,"EcGAPDH1 double mutant C150A+H177A (enzyme, Escherichia coli, UniProt P0A9B2 1-331, looked up, glyceraldehyde-3-phosphate dehydrogenase type 1 (EcGAPDH1), Escherichia coli; source: purified (Ni-NTA, size-exclusion chromatography)) MTIKVGINGFGRIGRIVFRAAQKRSDIEIVAINDLLDADYMAYMLKYDSTHGRFDGTVEVKDGHLIVNGKKIRVTAERDPANLKWDEVGVDVVAEATGLFLTDETARKHITAGAKKVVMTGPSKDNTPMFVKGANFDKYAGQDIVSNASATTNCLAPLAKVINDNFGIIEGLMTTVAATTATQKTVDGPSHKDWRGGRGASQNIIPSSTGAAKAVGKVLPELNGKLTGMAFRVPTPNVSVVDLTVRLEKAATYEQIKAAVKAAAEGEMKGVLGYTEDDVVSTDFNGEVCTSVFDAKAGIALNDNFVKLVSWYDNETGYSNKVLDLIAHISK",4
3,"EcGAPDH1 mutant C150A (enzyme, Escherichia coli, UniProt P0A9B2 1-331, looked up, glyceraldehyde-3-phosphate dehydrogenase type 1 (EcGAPDH1), Escherichia coli; Made from the wild-type vector by overlap extension PCR; source: purified (Ni-NTA, size-exclusion chromatography)) MTIKVGINGFGRIGRIVFRAAQKRSDIEIVAINDLLDADYMAYMLKYDSTHGRFDGTVEVKDGHLIVNGKKIRVTAERDPANLKWDEVGVDVVAEATGLFLTDETARKHITAGAKKVVMTGPSKDNTPMFVKGANFDKYAGQDIVSNASATTNCLAPLAKVINDNFGIIEGLMTTVHATTATQKTVDGPSHKDWRGGRGASQNIIPSSTGAAKAVGKVLPELNGKLTGMAFRVPTPNVSVVDLTVRLEKAATYEQIKAAVKAAAEGEMKGVLGYTEDDVVSTDFNGEVCTSVFDAKAGIALNDNFVKLVSWYDNETGYSNKVLDLIAHISK",4
4,"EcGAPDH1 mutant H177A (enzyme, Escherichia coli, UniProt P0A9B2 1-331, looked up, glyceraldehyde-3-phosphate dehydrogenase type 1 (EcGAPDH1), Escherichia coli; Made from the wild-type vector by overlap extension PCR; source: purified (Ni-NTA, size-exclusion chromatography)) MTIKVGINGFGRIGRIVFRAAQKRSDIEIVAINDLLDADYMAYMLKYDSTHGRFDGTVEVKDGHLIVNGKKIRVTAERDPANLKWDEVGVDVVAEATGLFLTDETARKHITAGAKKVVMTGPSKDNTPMFVKGANFDKYAGQDIVSNASCTTNCLAPLAKVINDNFGIIEGLMTTVAATTATQKTVDGPSHKDWRGGRGASQNIIPSSTGAAKAVGKVLPELNGKLTGMAFRVPTPNVSVVDLTVRLEKAATYEQIKAAVKAAAEGEMKGVLGYTEDDVVSTDFNGEVCTSVFDAKAGIALNDNFVKLVSWYDNETGYSNKVLDLIAHISK",4
5,"EcGAPDH1 mutant C150S (enzyme, Escherichia coli, UniProt P0A9B2 1-331, looked up, glyceraldehyde-3-phosphate dehydrogenase type 1 (EcGAPDH1), Escherichia coli; Made from the wild-type vector by overlap extension PCR; source: purified (Ni-NTA, size-exclusion chromatography)) MTIKVGINGFGRIGRIVFRAAQKRSDIEIVAINDLLDADYMAYMLKYDSTHGRFDGTVEVKDGHLIVNGKKIRVTAERDPANLKWDEVGVDVVAEATGLFLTDETARKHITAGAKKVVMTGPSKDNTPMFVKGANFDKYAGQDIVSNASSTTNCLAPLAKVINDNFGIIEGLMTTVHATTATQKTVDGPSHKDWRGGRGASQNIIPSSTGAAKAVGKVLPELNGKLTGMAFRVPTPNVSVVDLTVRLEKAATYEQIKAAVKAAAEGEMKGVLGYTEDDVVSTDFNGEVCTSVFDAKAGIALNDNFVKLVSWYDNETGYSNKVLDLIAHISK",4
